From patent US7572594B2, “Screening assays for agonists or antagonists or receptor activator of NF-κB” (Immunex Corporation, priority 2000, dated 2009) come the findings set out here.

Test [1] has as its system mouse TRAP promoter (SEQ ID NO:12). Briefly: mouse TRAP promoter/luciferase reporter in 293/EBNA cells. The test is classed as cell-based. Particulars: 24 hours after transfection, 0.4 ng RANK vector, 20 ng RANK-L vector. An excerpt: (§1) This example describes the activation of the TRAP promoter. A 2.6 kb DNA fragment containing the human TRAP promoter was obtained by digesting the plasmid pBL2HT2.2 with the restriction endonuclease ApaI. The cloning of the human TRAP gene 5′ region and the construction of pBL2HT2.2 are fully described in Reddy et al. (Bone 16:587-593 (1995)). A DNA containing the mouse TRAP promoter (SEQ ID NO:12) and a DNA containing the murine MMP-9 promoter (SEQ ID NO:11) also were used for these experiments. DNAs containing the promoters were fused to the luciferase reporter gene. These promoter/reporter constructs were transfected into human 293/EBNA cells along with various combinations of expression vectors that encoded full-length human RANK (SEQ ID NO:2) and human full-length RANK-L proteins (SEQ ID NO:6).
For the mouse TRAP promoter (SEQ ID NO:12), 2×10^5 293/EBNA cells were transfected using DEAE/dextran with 40 ng of a plasmid encoding approximately 2 kb of the mouse TRAP promoter (SEQ ID NO:12) fused to a luciferase reporter, 20 ng of an expression vector encoding RANK-L (SEQ ID NO:6), and 0.4 ng of an expression vector encoding RANK (SEQ ID NO:2). Twenty four hours after transfection, luciferase activity in cell lysates was measured according to manufacturer's instructions (Promega) using a EG&G/Berthold luminometer. […]
(In general: Reporter assays use an easily measured gene product as a stand-in for the process of interest.)

Test [2] relates to endogenous c-jun kinase (JNK). Briefly: JNK immune-complex kinase assay in transfected 3T3 cells. The class given is cell-based, murine. The following applies: 3T3 cells 24 hours after transfection, absence of RANK-L stimulation. As to the method:
This example describes evaluating murine 3T3 cells transfected with plasmids containing DNA encoding human FEO RANK (SEQ ID NO:9), and murine 3T3 cells expressing recombinant DNA encoding human wild type RANK (SEQ ID NO:1) for their relative ability to activate endogenous c-jun kinase (JNK) in the absence of RANK-L stimulation. JNK is known to be activated as a consequence of RANK signal transduction.
For JNK assays, whole cell extracts were prepared from 3T3 cells 24 hours after transfection. Cells were lysed in a buffer containing 20 mM HEPES, pH 7.4, 2 mM EGTA, 50 mM β-glycerol phosphate, 1 mM DTT, 1 mM sodium orthovanadate, 1% Triton-X 100, 10% glycerol and the protease inhibitors leupeptin, pepstatin A, and PMSF. Clarified lysates were immunoprecipitated with 1 μg each anti-JNK (FL) and anti-JNK (C17) antibodies (both from Santa Cruz Biotechnology, Inc. Santa Cruz, Calif.). […] JNK activity was determined by an immune-complex assay using 1 μg of a fusion protein of glutathione-S-transferase and amino acids 1-169 of […] (GST-cJun (1-169)) (UBI, Lake Placid, N.Y.) and 5 μCi of [^32P]-ATP as substrate in 40 μl of assay buffer at 30° C. for 20 min. […]

The test system of test [3] is primary hematopoietic cells from the RANK −/− mice. Description: F-actin ring formation, phalloidin staining. The following applies: 5 days in 40 ng/ml CSF-1 and 200 ng/ml mRANK-L. The class given is cell-based, mouse. From the text:
To detect F-actin rings, cells are fixed, such as by exposure to 3% paraformaldehyde, and visualized by staining cells with a fluorescent probe that binds specifically with actin. A suitable fluorescent tag is phalloidin, which can be obtained from Molecular Probes, Eugene, Oreg. The fluorescent signal is detected, for example, using a standard fluorescent microscope, and the number of cells having F-actin rings is visually quantified. An F-actin ring is identified as a continuous ring of F-actin at the periphery of a cell, and these distinct structures are visible through a microscope.
A procedure to detect F-actin rings was carried out as follows. Primary hematopoietic cells from the RANK −/− mice were infected with retroviral constructs encoding either the full-length human RANK cDNA or the RANK/TRAF6 binding mutant (RANK Δ340-421). Cells were cultured on LabTek Chamber slides with #1 borosilicate coverglasses (Nalge/Nunc). After incubation for 5 days in MEM containing 10% fetal bovine serum containing 40 ng/ml CSF-1 and 200 ng/ml mRANK-L. The media was aspirated, washed twice in PBS and then fixed in a solution of 3% paraformaldehyde for 10 minutes, followed by quenching in 50 mM NH4Cl. […] The fluorescent signal was detected using a standard fluorescent microscope, and F-actin rings were identified as continuous rings of F-actin at the periphery of individual cells.

For test [4], the system named is murine MMP-9 promoter (SEQ ID NO:11). Description: murine MMP-9 promoter/luciferase reporter in 293/EBNA cells. The test is classed as cell-based. The following applies: 40 ng reporter.
Text: as §1
For the murine MMP-9 promoter experiments, 4.1 kb of the murine MMP-9 promoter (SEQ ID NO:11) were fused to a luciferase gene and transfected (40 ng) into 293/EBNA cells. Transfection of either RANK (SEQ ID NO:2) alone or the combination of RANK (SEQ ID NO:2) plus RANK-L (SEQ ID NO:6) increased reporter expression 2.5-fold.

B1: wild type RANK: full-length human RANK, receptor activator of NF-κB (SEQ ID NO:2), expressed from vector or retrovirus (protein, listed as Homo sapiens)
chain: MAPRARRRRPLFALLLLCALLARLQVALQIAPPCTSEKHYEHLGRCCNKCEPGKYMSSKCTTTSDSVCLPCGPDEYLDSWNEEDKCLLHKVCDTGKALVAVVAGNSTTPRRCACTAGYHWSQDCECCRRNTECAPGLGAQHPLQLNKDTVCKPCLAGYFSDAFSSTDKCRPWTNCTFLGKRVEHHGTEKSDAVCSSSLPARKPPNEPHVYLPGLIILLLFASVALVAAIIFGVCYRKKGKALTANLWHWINEACGRLSGDKESSGDSCVSTHTANFGQQGACEGVLLLTLEEKTFPEDMCYPDQGGVCQGTCVGGGPYAQGEDARMLSLVSKTEIEEDSFRQMPTEDEYMDRPSQPTDQLLFLTEPGSKSTPPFSEPLEVGENDSLSQCFTGTQSTVGSESCNCTEPLCRTDWTPMSSENYLQKEVDSGHCPHWAASPSPNWADVCTGCRNPPGEDCEPLVGSPKRGPLPQCAYGMGLPPEEEASRTEARDQPEDGADGRLPSSARAGAGSGSSPGGQSPASGNVTGNSNSTFISSGQVMNFKGDIIVVYVSQTSQEGAAAAAEPMGRPVQEETLARRDSFAGNGPRFPDPCGGPEGLREPEKASRPVQEQGGAKA
With B1, the “increase of reporter expression (luciferase)” value is reported as “approximately 2 fold” in test [1] and 2.5 fold in test [4]. The “activation of JNK” value in test [2] was “not”. In test [3], the “cells with F-actin rings” value is “more than 50%”.
